Data on 1 molecule can be found in publication PMC9779223, “Impact of Troponin in Cardiomyopathy Development Caused by Mutations in Tropomyosin” (International Journal of Molecular Sciences, 2022).

The assay addresses T1, Tropomyosin C-terminal fragment Tpm WT 134–284 (human, UniProt P09493 134-284).
T1 construct: also called Tpm C-end; source: E. coli C41 (DE3), purified (anion exchange, HiTrap Q HP)
The experiment in a line: ITC; MicroCal PEAQ-ITC, 25 °C; 30 mM HEPES-Na pH 7.3, 100 mM NaCl, 1 mM DTT; sample in the cell 30 to 60 µM, ligand in the syringe 200 to 700 µM; one set of binding sites. The conditions noted are these: both partners purified. In general terms: Isothermal titration calorimetry measures the heat released or taken up as one component is titrated into another.

T1 sequence (P09493 134-284): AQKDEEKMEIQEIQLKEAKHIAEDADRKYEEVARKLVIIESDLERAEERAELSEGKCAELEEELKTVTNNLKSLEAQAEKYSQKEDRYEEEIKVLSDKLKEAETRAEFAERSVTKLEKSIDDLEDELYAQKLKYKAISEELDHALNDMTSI

B1: Tropomyosin N-terminal fragment Tpm WT 1–133 (domain or fragment)
chain: not shown
notes: human tropomyosin Tpm1.1 (alpha-Tpm), residues 1-133 (ends at the trypsin site Arg133); Made from the full Tpm1.1 construct by primers that put a stop after Arg133; also called Tpm_(1–133); Tpm N-end; source: E. coli C41 (DE3), purified (anion exchange, HiTrap Q HP)
One may read the Kd as the constant that tells how readily two partners part at equilibrium. Lower therefore signals tighter binding. As a reminder, the stoichiometry N is a count of units in the complex or per binding partner. As to B1, the Kd stood at 10.2 ± 0.3 µM, the dH came out at 1.95 ± 0.15 kcal/mol and the “stoichiometry N” value came out at 1.17 ± 0.05.
